Legend:
[1] = tested on: PKAc, full-length, active (catalytic subunit of Protein Kinase A)
[2] = tested on: T1, adjacent peptide Gly-Phe-Ala-Lys-Arg-Val-Lys-Gly-Arg-Thr-Trp-Thr-Leu
T1 sequence: GFAKRVKGRTWTL

[3] = tested on: T2, ZaTa peptide (Ala-Lys-Arg-Val-Lys-Gly-Arg-Thr-Trp-Thr-Leu-Cys-Gly-Thr-Pro-Glu-Tyr)
T2 sequence: AKRVKGRTWTLCGTPEY

[4] = biological target: AKT1 (PKB alpha), active (UniProt P31749)
[5] = biological target: AKT1 Ser473Asp mutant, active (UniProt P31749)
[6] = biological target: AKT1 mutant with a deletion in the PH domain, active (UniProt P31749)
AKT1 mutant with a deletion in the PH domain, active, sequence (P31749 whole entry, looked up, stated change not applied, the tested form may be a part): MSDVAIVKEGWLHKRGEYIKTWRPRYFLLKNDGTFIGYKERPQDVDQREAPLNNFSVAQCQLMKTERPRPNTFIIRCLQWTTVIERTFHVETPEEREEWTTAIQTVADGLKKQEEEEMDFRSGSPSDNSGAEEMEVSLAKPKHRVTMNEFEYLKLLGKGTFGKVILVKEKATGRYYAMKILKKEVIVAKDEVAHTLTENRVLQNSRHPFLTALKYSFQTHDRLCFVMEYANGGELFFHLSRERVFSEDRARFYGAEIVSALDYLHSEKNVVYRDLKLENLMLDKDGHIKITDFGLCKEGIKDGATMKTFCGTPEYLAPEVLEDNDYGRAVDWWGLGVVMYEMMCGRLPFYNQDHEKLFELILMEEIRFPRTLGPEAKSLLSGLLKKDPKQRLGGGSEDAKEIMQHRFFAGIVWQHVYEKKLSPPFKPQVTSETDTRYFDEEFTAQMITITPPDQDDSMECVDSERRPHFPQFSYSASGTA

AKT1 (PKB alpha), active, sequence (P31749 whole entry, looked up): as the sequence (P31749 whole entry, looked up, stated change not applied, the tested form may be a part) above
AKT1 Ser473Asp mutant, active, sequence (P31749 whole entry S473D, the tested form may be a part): as the sequence (P31749 whole entry, looked up, stated change not applied, the tested form may be a part) above, with S473D counted along it

Substance: AKT1 (PKB alpha), active
- PKA kinase assay, phosphorylation level of DARPP-32 at Thr-34 [1]: addition of the active AKT to the PKA kinase assay increased the catalytic activity of PKAc
- phosphorylation level of PKAc at Thr-197 [1]: the increase in the PKAc catalytic activity was accompanied by an increase in the phosphorylation level of PKAc at Thr-197
- AKT1 in vitro catalytic activity (incorporation of γ-32P into Ser-21 GSK-3β substrate peptide) [2]: the adjacent overlapping peptide was not able to inhibit AKT1
- AKT1 kinase assay, phosphorylation level of Ser-9 GSK-3 GST substrate (western blot) [3]: The phosphorylation level of Ser-9 GSK-3 GST substrate was significantly reduced after adding the ZaTa peptide to the AKT1 kinase assay
- control kinase reactions that contained the peptide and AKT only [3]: ZaTa peptide itself was not a substrate for AKT

Substance: PKAc, full-length, active (catalytic subunit of Protein Kinase A)
- AKT kinase assay, Ser-9 GSK-3 GST fusion protein as substrate [4]: the kinetic activity of AKT was dramatically reduced
- AKT kinase assay, catalytic activity of the AKT1 mutant [5]: The decrease in the catalytic activity of AKT by PKAc was also observed with two mutants and active forms of AKT1 ... the other one with a Ser473Asp mutation
- AKT kinase assay, catalytic activity of the AKT1 mutant [6]: The decrease in the catalytic activity of AKT by PKAc was also observed with two mutants and active forms of AKT1, one with a deletion in the PH domain

Substance: active PKAc purified from bovine tissue
- AKT kinase assay, catalytic activity of AKT [4]: the same inhibitory effect was observed with active PKAc purified from bovine tissue

Substance: human PKAc expressed in Sf9 cells
- AKT kinase assay, catalytic activity of AKT [4]: the same inhibitory effect was observed ... with human PKAc expressed in Sf9 cells

From US20240083948
